The supplement of paper PMC10724198
± gives the standard deviation of the averaged measurements.

Test system: Saccharomyces cerevisiae
Experiment: protein stability index of tFT-peptide fusion (C-terminal peptide) (PSI (0-1 scale)); higher = more stable (slower turnover)
Conditions: genetic background: wild type; temperature: 30 C
Procedure: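 Multiplexed protein stability (MPS) profiling in S. cerevisiae. Random 12-aa peptides (tFT-X12 library) are fused to the C-terminus of a sfGFP-mCherry tandem fluorescent timer, after mCherry and a GGGS linker. Cells are FACS-sorted into 8 mCherry/sfGFP bins and deep-sequenced. The protein stability index (PSI) is the read-weighted bin average, scaled from 0 (unstable) to 1 (stable). Only peptides with >10 reads are reported; cells were grown at 30 °C in SC-His with glucose.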
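Further: PSI is a weighted mean of sequencing reads over stability bins, variants kept only with over 10 reads, mCherry proximal and sfGFP distal, peptide attached via GGGS linker.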

| Sequence | protein stability index |
| --- | --- |
| CLRGFWSQFMRF | 0.678 ± 0.032 |
| CLRKKYSNTLLM | 0.647 ± 0.028 |
| CLRTVGIAQSSG | 0.7019 ± 0.00094 |
| CLSAPFRSLLFL | 0.585 ± 0.051 |
| CLSATTFSYVFA | 0.576 ± 0.0061 |
| CLTRFFQPYGSL | 0.667 ± 0.059 |
| CLTYPSFSLSSS | 0.635 ± 0.063 |
| CMRVGGWFLFSL | 0.661 ± 0.051 |
| CNFGLHSCALLY | 0.723 ± 0.033 |
| CNVGAIVGLVWV | 0.6002 ± 0.0019 |
| CPGNGVFYSGRG | 0.679 ± 0.014 |
| CPLEYSEVVLVD | 0.6268 ± 0.0022 |
| CPLSPLPSSAAP | 0.681 ± 0.042 |
| CPPGFPRPSSPH | 0.689 ± 0.028 |
| CPPTPSPSTLPT | 0.663 ± 0.016 |
| CPRPHVLPLAYF | 0.646 ± 0.014 |
| CPRSWWELLAID | 0.739 ± 0.045 |
| CPSIVCSPTDPM | 0.679 ± 0.061 |
| CPSRPPALPPPE | 0.66835 ± 0.00049 |
| CPTLTCPRLPSP | 0.684 ± 0.11 |
| CPVSWRPLCTVS | 0.6177 ± 0.0054 |
| CQHPLRPRCLND | 0.6724 ± 0.0048 |
| CRGAGGRTVING | 0.665 ± 0.043 |
| CRGRWVAWSMGI | 0.7221 ± 0.0019 |
| CRMEARHSVLKS | 0.554 ± 0.0087 |
| CRPVPGGLFVVS | 0.669 ± 0.064 |

| Sequence | protein stability index |
| --- | --- |
| CRRRWSAPGGSR | 0.7176 ± 0.0047 |
| CRSGFEPSPHLG | 0.657 ± 0.029 |
| CSAGLSDRGFCE | 0.663 ± 0.023 |
| CSCSQYFHLPNV | 0.687 ± 0.017 |
| CSGCSGSCSVLA | 0.646 ± 0.049 |
| CSLRDRCAFSFG | 0.6982 ± 0.0052 |
| CSLSLPAFSAPS | 0.669 ± 0.04 |
| CSLVIRRRREVG | 0.659 ± 0.044 |
| CSPGVSGVSSVD | 0.685 ± 0.026 |
| CSPMFTRQPLPL | 0.645 ± 0.027 |
| CSRDNRTSRSIL | 0.681 ± 0.032 |
| CSSRDGLLWRFR | 0.731 ± 0.088 |
| CSSTGVPGRRHE | 0.709 ± 0.013 |
| CSTFFVRSLSFI | 0.63 ± 0.034 |
| CSVFFFMGFLFA | 0.511 ± 0.13 |
| CSVRGDVANYAF | 0.6457 ± 0.0028 |
| CSVSACTVSLCC | 0.5849 ± 0.0017 |
| CTCSGELSLRGV | 0.684 ± 0.011 |
| CTLSFRVAFFSL | 0.5848 ± 0.00071 |
| CTPSSLRPLMPS | 0.655 ± 0.073 |
| CTRCKRDDYNIE | 0.6803 ± 0.006 |
| CTRRACDVRAVL | 0.699 ± 0.025 |
| CVAAASPFRLLY | 0.654 ± 0.04 |
| CVAGHPPASPPP | 0.712 ± 0.059 |
| CVFGSHCRVLVV | 0.556 ± 0.028 |
| CVGSLGVVVGWG | 0.724 ± 0.013 |

| Sequence | protein stability index |
| --- | --- |
| CVGSVRYRIRGS | 0.63 ± 0.06 |
| CVLARVWMRGGR | 0.636 ± 0.023 |
| CVLVVGVPAGGG | 0.611 ± 0.028 |
| CVLYQLPPAYSF | 0.643 ± 0.029 |
| CVQCRRPSEWLV | 0.698 ± 0.033 |
| CVRARQLTLCIP | 0.5505 ± 0.0036 |
| CVSWFWVGYWWG | 0.516 ± 0.0086 |
| CVTGPIDKLRLL | 0.5947 ± 0.0023 |
| CVVHLLIFGLCI | 0.5963 ± 0.0046 |
| CVVVSCVCPFVV | 0.5739 ± 0.0036 |
| CVVYLDVRLPVT | 0.58 ± 0.023 |
| CVYGILPRPPDF | 0.671 ± 0.035 |
| CWVHGRWVSGAS | 0.813 ± 0.051 |
| CYFLAMPLYFPL | 0.622 ± 0.014 |
| CYIGGEVEFVGW | 0.727 ± 0.0094 |
| CYPIPEGWIGLM | 0.607 ± 0.045 |
| DAAVQSGGRVAG | 0.481 ± 0.03 |
| DACRLLGGRRCG | 0.717 ± 0.07 |
| DAGGGKLFGNSK | 0.663 ± 0.019 |
| DAPLGDLRAYTT | 0.747 ± 0.028 |
| DAYLGKRESRLW | 0.615 ± 0.07 |
| DCSCRRSISVLV | 0.54 ± 0.024 |
| DCVSLFRVPRVA | 0.612 ± 0.028 |
| DCWAGWGLCGWG | 0.748 ± 0.044 |
| DDAVTHTLWVSE | 0.692 ± 0.012 |
| DDDHRKITGTSR | 0.707 ± 0.091 |

| Sequence | protein stability index |
| --- | --- |
| DDFQVFCSNGMG | 0.708 ± 0.018 |
| DDGRRRAERGGG | 0.685 ± 0.047 |
| DDSSSFPSLLSF | 0.753 ± 0.069 |
| DDSVGKLFYCLF | 0.7 ± 0.03 |
| DEDIHQTIGKKG | 0.716 ± 0.056 |
| DEIRGERETKGR | 0.656 ± 0.036 |
| DEMNEGHVPPGV | 0.718 ± 0.071 |
| DERLNGWERGDV | 0.698 ± 0.07 |
| DFSPPSPLPLPL | 0.721 ± 0.01 |
| DFVLSASIGFTR | 0.673 ± 0.035 |
| DGFWGGASHQGW | 0.699 ± 0.0089 |
| DGHSAAAFCVRG | 0.748 ± 0.1 |
| DGPSPAASPPRF | 0.757 ± 0.095 |
| DGSGPSWGRKGR | 0.6942 ± 0.0043 |
| DGSLTMTRTGFR | 0.704 ± 0.021 |
| DGVAMCGLKASL | 0.643 ± 0.1 |
| DGWTLCRVGCVG | 0.652 ± 0.061 |
| DHVSVFSFVCFL | 0.633 ± 0.015 |
| DICFGLLPPWPA | 0.755 ± 0.057 |
| DICSNSGRQRFL | 0.685 ± 0.013 |
| DIERSAAPRLLL | 0.727 ± 0.042 |
| DIIRKKNKQGRI | 0.702 ± 0.035 |
| DILLPFQFLDDF | 0.6927 ± 0.00039 |
| DILRSGVYDVCK | 0.7251 ± 0.00083 |
| DITKNGKSKMLK | 0.664 ± 0.051 |
| DIWEFYNNLYSS | 0.719 ± 0.013 |

| Sequence | protein stability index |
| --- | --- |
| DKGTMNRARGGS | 0.683 ± 0.024 |
| DKKNIRIYNKTL | 0.669 ± 0.042 |
| DKLLTYTLGARI | 0.69 ± 0.016 |
| DLAIPPPRPRFF | 0.701 ± 0.013 |
| DLHCRSAILALL | 0.594 ± 0.034 |
| DLLCLWEFPSIP | 0.731 ± 0.12 |
| DLPRLGLPRRAC | 0.63 ± 0.047 |
| DLQACGATSKAS | 0.683 ± 0.059 |
| DLSDPGHSLSIL | 0.68 ± 0.055 |
| DLTPLSSSRLPP | 0.652 ± 0.04 |
| DMPIVVDGSLVR | 0.684 ± 0.027 |
| DNLFSPTLLWEL | 0.6674 ± 0.0034 |
| DNSDIKKGARRI | 0.707 ± 0.014 |
| DNSSLGSIGTDI | 0.645 ± 0.046 |
| DPAPSPTGMCTR | 0.688 ± 0.016 |
| DPLSPLPPPPPP | 0.635 ± 0.14 |
| DPPLSGRAKGPH | 0.709 ± 0.02 |
| DPRAGLGLLELT | 0.644 ± 0.067 |
| DQFRLLQYWEAS | 0.72 ± 0.048 |
| DQTPRWQRCTRQ | 0.733 ± 0.12 |
| DQVGLVLSDLIY | 0.7272 ± 0.00085 |
| DREKGGLREADQ | 0.669 ± 0.035 |
| DREKRKSGGERR | 0.647 ± 0.039 |
| DRGSGRFVRGGL | 0.664 ± 0.083 |
| DRKDGVSVSVGY | 0.675 ± 0.05 |
| DRLGFGPVSRID | 0.665 ± 0.064 |

| Sequence | protein stability index |
| --- | --- |
| DRPPYTPHPPYP | 0.7521 ± 0.0073 |
| DRPSPGLALGGP | 0.7314 ± 0.0023 |
| DRRNNRLIRRNQ | 0.7174 ± 0.0045 |
| DRSRESSMSLPD | 0.711 ± 0.0076 |
| DRSRSPCPCSSP | 0.6898 ± 0.0022 |
| DSCPGAAGGRGG | 0.642 ± 0.043 |
| DSGTIWFPTHFV | 0.7151 ± 0.0044 |
| DSGVAVVLVGCV | 0.529 ± 0.013 |
| DSPASHWSVKSL | 0.638 ± 0.043 |
| DSTTGALILLPV | 0.692 ± 0.021 |
| DTDIHRKRTRQV | 0.7 ± 0.037 |
| DTIQFLQCYRPI | 0.655 ± 0.035 |
| DTSRGDWEVFLI | 0.713 ± 0.061 |
| DTYKDSHLNRRI | 0.664 ± 0.022 |
| DVCFIRRRYKKI | 0.669 ± 0.041 |
| DVERKKIKIARQ | 0.714 ± 0.047 |
| DVHNRSPNRAPE | 0.671 ± 0.042 |
| DVNTGYHFLRDL | 0.6757 ± 0.0015 |
| DVRLGSQGSFRW | 0.705 ± 0.01 |
| DVRYQSLRRSGF | 0.725 ± 0.028 |
| DVWVLAANSSLG | 0.758 ± 0.1 |
| DWGGRRVTEEEG | 0.641 ± 0.029 |
| DYLSSPLSSPSP | 0.667 ± 0.066 |
| DYSTLFVSVADP | 0.667 ± 0.0069 |
| EAGMGVGRCGTG | 0.728 ± 0.01 |
